The Human Domainome abundance scans (Beltran et al. 2025)
± gives the uncertainty stated by the source.

B1: Cullin-9, residues 2234 to 2275; numbered along this chain, Q8IWT3 (parent)
chain: KRCPSCQAPIEKNEGCLHMTCAKCNHGFCWRCLKSWKPNHKD

Variants of: B1
Assay: abundance fitness (aPCA) (normalised: wild type 0, dead -1); higher = more abundant; growth selection in yeast, the domain comes from the species named
Conditions: Homo sapiens
Work on KRCPSCQAPIEKNSGCLHMTCAKCNHGFCWRCLKSWKPNHKD [E14S] yielded an abundance fitness of -0.047 ± 0.1. KRCPSCQAPIEKNQGCLHMTCAKCNHGFCWRCLKSWKPNHKD [E14Q] gave an abundance fitness of -0.132 ± 0.13. With KRCPSCQAPIEKNNGCLHMTCAKCNHGFCWRCLKSWKPNHKD [E14N] the abundance fitness was -0.219 ± 0.24. For KRCPSCQAPIEKNVGCLHMTCAKCNHGFCWRCLKSWKPNHKD [E14V], the abundance fitness was -0.397 ± 0.092. With KRCPSCQAPIEKNDGCLHMTCAKCNHGFCWRCLKSWKPNHKD [E14D] the abundance fitness was -0.084 ± 0.16. KRCPSCQAPIEKNCGCLHMTCAKCNHGFCWRCLKSWKPNHKD [E14C] gave an abundance fitness of -0.001 ± 0.13. For KRCPSCQAPIEKNPGCLHMTCAKCNHGFCWRCLKSWKPNHKD [E14P], the abundance fitness was -0.011 ± 0.16. With KRCPSCQAPIEKNLGCLHMTCAKCNHGFCWRCLKSWKPNHKD [E14L] the abundance fitness was -0.411 ± 0.12. Work on KRCPSCQAPIEKNFGCLHMTCAKCNHGFCWRCLKSWKPNHKD [E14F] yielded an abundance fitness of -0.492 ± 0.2. KRCPSCQAPIEKNMGCLHMTCAKCNHGFCWRCLKSWKPNHKD [E14M] showed an abundance fitness of 0.121 ± 0.23. In the case of KRCPSCQAPIEKNTGCLHMTCAKCNHGFCWRCLKSWKPNHKD [E14T], the abundance fitness is reported as -0.12 ± 0.15. Work on KRCPSCQAPIEKNWGCLHMTCAKCNHGFCWRCLKSWKPNHKD [E14W] yielded an abundance fitness of -0.362 ± 0.14. With KRCPSCQAPIEKNGGCLHMTCAKCNHGFCWRCLKSWKPNHKD [E14G] the abundance fitness was -0.071 ± 0.087. KRCPSCQAPIEKNKGCLHMTCAKCNHGFCWRCLKSWKPNHKD [E14K] gave an abundance fitness of -0.473 ± 0.17. In the case of KRCPSCQAPIEKNRGCLHMTCAKCNHGFCWRCLKSWKPNHKD [E14R], the abundance fitness is reported as -0.369 ± 0.091. Work on KRCPSCQAPIEKNAGCLHMTCAKCNHGFCWRCLKSWKPNHKD [E14A] yielded an abundance fitness of -0.001 ± 0.087. KRCPSCQAPIEKNERCLHMTCAKCNHGFCWRCLKSWKPNHKD [G15R] showed an abundance fitness of -0.096 ± 0.092. With KRCPSCQAPIEKNELCLHMTCAKCNHGFCWRCLKSWKPNHKD [G15L] the abundance fitness was -0.515 ± 0.17. For KRCPSCQAPIEKNEWCLHMTCAKCNHGFCWRCLKSWKPNHKD [G15W], the abundance fitness was -0.176 ± 0.1. Work on KRCPSCQAPIEKNESCLHMTCAKCNHGFCWRCLKSWKPNHKD [G15S] yielded an abundance fitness of -0.362 ± 0.11. For KRCPSCQAPIEKNEHCLHMTCAKCNHGFCWRCLKSWKPNHKD [G15H], the abundance fitness was -0.492 ± 0.17. Variant KRCPSCQAPIEKNEECLHMTCAKCNHGFCWRCLKSWKPNHKD [G15E] has an abundance fitness of 0.045 ± 0.097. Variant KRCPSCQAPIEKNEQCLHMTCAKCNHGFCWRCLKSWKPNHKD [G15Q] has an abundance fitness of -0.777 ± 0.21. For KRCPSCQAPIEKNEPCLHMTCAKCNHGFCWRCLKSWKPNHKD [G15P], the abundance fitness was -0.259 ± 0.12. Work on KRCPSCQAPIEKNECCLHMTCAKCNHGFCWRCLKSWKPNHKD [G15C] yielded an abundance fitness of -0.113 ± 0.33. With KRCPSCQAPIEKNEACLHMTCAKCNHGFCWRCLKSWKPNHKD [G15A] the abundance fitness was -0.003 ± 0.1. In the case of KRCPSCQAPIEKNEKCLHMTCAKCNHGFCWRCLKSWKPNHKD [G15K], the abundance fitness is reported as -0.294 ± 0.15. Variant KRCPSCQAPIEKNEMCLHMTCAKCNHGFCWRCLKSWKPNHKD [G15M] has an abundance fitness of -0.576 ± 0.17. For KRCPSCQAPIEKNETCLHMTCAKCNHGFCWRCLKSWKPNHKD [G15T], the abundance fitness was -0.698 ± 0.17. Work on KRCPSCQAPIEKNEGCIHMTCAKCNHGFCWRCLKSWKPNHKD [L17I] yielded an abundance fitness of -0.267 ± 0.2. KRCPSCQAPIEKNEGCAHMTCAKCNHGFCWRCLKSWKPNHKD [L17A] showed an abundance fitness of -0.053 ± 0.079. With KRCPSCQAPIEKNEGCDHMTCAKCNHGFCWRCLKSWKPNHKD [L17D] the abundance fitness was -0.006 ± 0.14. KRCPSCQAPIEKNEGCGHMTCAKCNHGFCWRCLKSWKPNHKD [L17G] showed an abundance fitness of -0.062 ± 0.075. KRCPSCQAPIEKNEGCCHMTCAKCNHGFCWRCLKSWKPNHKD [L17C] gave an abundance fitness of -0.209 ± 0.25. KRCPSCQAPIEKNEGCKHMTCAKCNHGFCWRCLKSWKPNHKD [L17K] gave an abundance fitness of -0.862 ± 0.17. With KRCPSCQAPIEKNEGCNHMTCAKCNHGFCWRCLKSWKPNHKD [L17N] the abundance fitness was -0.858 ± 0.21. Variant KRCPSCQAPIEKNEGCMHMTCAKCNHGFCWRCLKSWKPNHKD [L17M] has an abundance fitness of -0.071 ± 0.13. KRCPSCQAPIEKTEGCLHMTCAKCNHGFCWRCLKSWKPNHKD [N13T] gave an abundance fitness of 0.185 ± 0.1. Variant KRCPSCQAPIEKWEGCLHMTCAKCNHGFCWRCLKSWKPNHKD [N13W] has an abundance fitness of 0 ± 0.1. KRCPSCQAPIEKYEGCLHMTCAKCNHGFCWRCLKSWKPNHKD [N13Y] showed an abundance fitness of -0.244 ± 0.16. For KRCPSCQAPIEKVEGCLHMTCAKCNHGFCWRCLKSWKPNHKD [N13V], the abundance fitness was 0.051 ± 0.085. Work on KRCPSCQAPIEKNEGKLHMTCAKCNHGFCWRCLKSWKPNHKD [C16K] yielded an abundance fitness of 0.324 ± 0.099. For KRCPSCQAPIEKNEGILHMTCAKCNHGFCWRCLKSWKPNHKD [C16I], the abundance fitness was 0.444 ± 0.16. KRCPSCQAPIEKNEGVLHMTCAKCNHGFCWRCLKSWKPNHKD [C16V] gave an abundance fitness of 0.449 ± 0.085. For KRCPSCQAPIEKNEGFLHMTCAKCNHGFCWRCLKSWKPNHKD [C16F], the abundance fitness was -0.149 ± 0.15. KRCPSCQAPIEKNEGQLHMTCAKCNHGFCWRCLKSWKPNHKD [C16Q] gave an abundance fitness of 0.416 ± 0.091. KRCPSCQAPIEKNEGNLHMTCAKCNHGFCWRCLKSWKPNHKD [C16N] gave an abundance fitness of 0.23 ± 0.13. For KRCPSCQAPIEKNEGMLHMTCAKCNHGFCWRCLKSWKPNHKD [C16M], the abundance fitness was 0.202 ± 0.11. With KRCPSCQAPIEKNEGTLHMTCAKCNHGFCWRCLKSWKPNHKD [C16T] the abundance fitness was 0.471 ± 0.11. In the case of KRCPSCQAPIEKNEGDLHMTCAKCNHGFCWRCLKSWKPNHKD [C16D], the abundance fitness is reported as 0.544 ± 0.092. In the case of KRCPSCQAPIEKNEGSLHMTCAKCNHGFCWRCLKSWKPNHKD [C16S], the abundance fitness is reported as 0.422 ± 0.083. With KRCPSCQAPIEKNEGALHMTCAKCNHGFCWRCLKSWKPNHKD [C16A] the abundance fitness was 0.329 ± 0.079. KRCPSCQAPIEKNEGYLHMTCAKCNHGFCWRCLKSWKPNHKD [C16Y] showed an abundance fitness of -0.032 ± 0.15. KRCPSCQAPIEKNEGPLHMTCAKCNHGFCWRCLKSWKPNHKD [C16P] gave an abundance fitness of 0.161 ± 0.098. With KRCPSCQAPIEKNEGWLHMTCAKCNHGFCWRCLKSWKPNHKD [C16W] the abundance fitness was -0.121 ± 0.09. In the case of KRCPSCQAPIEKNEGELHMTCAKCNHGFCWRCLKSWKPNHKD [C16E], the abundance fitness is reported as 0.507 ± 0.082. In the case of KRCPSCQAPIEKNEGLLHMTCAKCNHGFCWRCLKSWKPNHKD [C16L], the abundance fitness is reported as -0.115 ± 0.084. Work on KRCPSCQAPIEKNEGHLHMTCAKCNHGFCWRCLKSWKPNHKD [C16H] yielded an abundance fitness of 0.105 ± 0.14. Variant KRCPSCQAPIEKNEGRLHMTCAKCNHGFCWRCLKSWKPNHKD [C16R] has an abundance fitness of 0.227 ± 0.073. Variant KRCPSCQAPIEKNEGGLHMTCAKCNHGFCWRCLKSWKPNHKD [C16G] has an abundance fitness of 0.55 ± 0.069.
